According to patent US20150259430A1 (MAB DISCOVERY, published 2015):

B1: Antibody 69 (antibody, V domains shown)
VH: QSVEESGGRLVTPGTLLTLTCTVSGFSLTTYAVSWVRQAPGKGLEYMGYISATGSTYYASWAKGRFTISRTSTTVDLKITSPTIEDTATYFCARIDAATSYSAFDPWGPGTLVTVSS
VL: AQVLTQTPSSVSAAVGGTVTINCQSSESVYKNNYLAWYQQKPGQPPRLLIYLASTLASGVPSRFSGSGSGTQFTLTISGVQCDDAATYYCEATYVGVDWYWAFGGGTEVVVK
notes: rabbit IgG in B-cell supernatant
B2: Antibody 64 (antibody, V domains shown)
VH: QEQLKESGGGLVTPGTPLTLTCTASGFTISSYDMGWVRQAPGKGLEWIGYIWSGGSTYYANWAKGRFTISKTSTTVDLKMTSLTTEDTATYFCARVEFYSYVYVLWGPGTLVTVSS
VL: AFELTQTPSSVEAAVGGTVTIKCQASQSISGCLAWYQQKPGQPPKLLIYLASTLASGVSSRFRGSGSGTEYTLTISGVECDDAATYYCQQHYSSNNVDNAFGGGTEVVVK
notes: as for B1
B3: Antibody 62 (antibody, V domains shown)
VH: QSVEESGGRLVTPGTPLTLTCTVSGFSLSTNDIGWVRQAPGKGLEWIGYIWSGVKTYYVGWAKGRFTISKTSSTTVDLKMTSLTTEDTATYFCARVNSFSYVYSLWGPGTLVTVSS
VL: AYDMTQTPGSVEVAVGGTVTIKCQASEDIHSSLAWYQQKPGQPPKLLIYLASTLESGVPSRFKGSGSGTEYTLTISGVECADAATYYCQQHHSTSGVDNAFGGGTEVVVK
notes: as for B1
B4: Antibody 22 (antibody, V domains shown)
VH: QSVEESGGRLVTPGTPLTLTCTVSGFSLSNYGMSWVRQAPGKGLEWIGIITSRSTYYASWAKGRFTISKTSSTTVDLKMTSLTTEDTATYFCGVNNLWGQGTLVTVSS
VL: DPVLTQTPSSVSAAVGGTVTISCQSSQTINNNDLSWFQQKPGQPPKRLIYEASTLTSGVPSRFKGSGSGTQFTLTISDVQCDDAATYYCLGGYYSYGWYFGFGGGTEVVVK
notes: as for B1
B5: Antibody 56 (antibody, V domains shown)
VH: QSLEESGGRLVTPGTPLTLTCTASGFSLSSYDLSWVRQAPGKGLEWIAYIWSGDKTYYANWAKGRFTISKTSSTTVDLKMTSLTTEDTATYFCATVNIYSYVYSLWGPGTLVTVSS
VL: AYDMTQTPASVEVAVGGTVTIKCQASQSISTALAWYQQKSGQPPKLLIYLASTLASGVPSRFKGSGSGTEYTLTISGVECADAATYYCQQHYSSNNVDNAFGGGTEVVVK
notes: as for B1
B6: Antibody 75 (antibody, V domains shown)
VH: QSVEESGGRLVTPGTPLTLTCTVSGFSLSRNAMSWVRQAPGKGLEWIGIINIYGTTWYASWAKGRFTISKTSSTTVTLKITSPTTEDTATYFCARDYGGDSATRLNLWGQGTLVTVSS
VL: DVVMTQTPASVEAAVGGTVTIKCQASQSIGGYLSWYQQKPGQPPKLLIYDASNLEIGVPSRFKGSGSGTEYTLTISDLECADAVTYYCQCTYGYGISSSYGNAFGGGTEVVVK
notes: as for B1
B7: Antibody 71 (antibody, V domains shown)
VH: QSVEESGGRLVTPGTPLTLTCTVSGFSLSRNAMSWVRQAPGKGLEWIGIINIYGTTWHAGWAKGRFTISKTSSTTVTLKITSPTTEDTATYFCARDYGGDSATRLNLWGQGTLVTVSS
VL: DVVMTQTPASVEAAVGGTVTIKCQASQSIGGYLSWYQQKPGQPPKLLIYDASNLEIGVPSRFKGSGSGTEYTLTISDLECADAVTYYCQCTYGYGISSSYGNAFGGGTEVVVK
notes: as for B1
B8: Antibody 11 (antibody, V domains shown)
VH: QSVEESGGRLVTPGTPLTLTCTVSGFSLRSYAMSWVRQAPGKGLEWVGIISTSGDTYYASWAKGRFTISKTSTTVDLKITSPTTEDTATYFCARYSYDDYGDYVRVGMDLWGPGTLVTVSS
VL: AAVLTQTPSPVSAAVGGTVSISCQSSKSVYYNNWLSWFQQKPGQRPKLLIYGASTLASGVPSRFKGSGSETQFTLTISDVQCDDAATYYCAGGYTSSSDTVSFGGGTEVVVK
notes: as for B1

What follows are binders tested against T1, recombinant Fc chimeric conjugate of human HER2 (human, UniProt P04626 23-652) (assay: ELISA, coated antigen).
T1 construct: extracellular domain; Coated on the ELISA plate
Protocol: Microtiter plates were coated with a) c-Met, IGF-1R, EGFR, HER2, and/or HER3 protein or b) EGFR, HER2, and/or HER3 (recombinant Fc chimeric conjugates of human c-Met, IGF-1R, EGFR, HER2, HER3 or IL12 Rβ1). After a blocking process, specific antibodies from B-cell supernatants bind to the targets and are then detected by a POD-labeled anti-rabbit IgG antibody. The IL12R binding was used as a counter-screen.
12.5 μL 0.5 μg/mL protein in PBS was transferred to a microtiter plate incubated and washed 3× with Wash Buffer. 90 μL Block Buffer was added to each well, incubated and washed. 12.5 μL Standard Antibody (Anti-EGF-Receptor; HER2 Rabbit anti-Human Monoclonal (extracellular domain) (SP3) Antibody; HER3 (N-terminal) antibody; start concentration 2 μg/ml; IL-12Rbeta1 antibody start concentration 500 ng/ml) in 1:2 dilutions or sample diluted in ELISA buffer was added, incubated and washed. 12.5 μl 1:5000 POD-Antibody (Anti-rabbit IgG, peroxidase-linked species-specific Fab2 fragment (from donkey) (ECL); assay dilution: 1:5000) in Elisa Buffer was added, incubated and washed. 15 μl TMB was added and 15 μl HCl was added after sufficient development. Absorbance (Optical Density O.D.) was read at 450 nm/620 nm.

Binding result, no binding (tested: OD 0.1 or lower):
B1
B2
B3
B4
B5
B6
B7
B8
